The record followed here is the RNAGym collection of RNA variant scans (doi:10.1021/acssynbio.7b00057).

B1: Pistol ribozyme (parent)
chain: GGGUCGUUGUUCCAUAAUCGCGUGGAUAUGGCACGCAAGUUUCUACCGGGCACCGUAAAUGUCCGACUGGAGCCGUUCGGGCGGCUAUAAACAGACCUCAGGCCCGAAGCGUGGCGGCACCUGCCGCCGGUGGUAAAAAAGAUCGGAAGAGCACACGUCU

The variants in this series derive from B1. Briefly: aptazyme ON/OFF ratio, guanine; higher = stronger switching; co-transcriptional cleavage with and without guanine.
As to U7A G9U U10A U11G C12U, the “aptazyme ON/OFF ratio” value turned out to be 1.39.

In the case of U7A G9U U10A U11G C12G, the “aptazyme ON/OFF ratio” value turned out to be 1.18.

On to U7A G9U U10A U11G C12A, for which the “aptazyme ON/OFF ratio” value came out at 1.07.

As for U7A G9C U10G U11C C13A, the “aptazyme ON/OFF ratio” value was found to be 1.06.

In the case of U7A G9C U10G U11C C13G, the “aptazyme ON/OFF ratio” value was 1.05.

For U7A G9C U10G U11C C13U, the “aptazyme ON/OFF ratio” value was determined as 1.03.

Take U7A G9C U10C U11G C12U C13G: the “aptazyme ON/OFF ratio” value is 1.04.

Take U7A G9C U10C U11G C12U C13U: the “aptazyme ON/OFF ratio” value stood at 1.06.

As to U7A G9C U10C U11G C12U C13A, the “aptazyme ON/OFF ratio” value amounted to 1.04.

For the variant U7A G9C U11A C12U, the “aptazyme ON/OFF ratio” value turned out to be 1.09.

As to U7A G9C U11A C12G, the “aptazyme ON/OFF ratio” value stood at 1.08.

In the case of U7A G9C U11A C12A, the “aptazyme ON/OFF ratio” value is 1.07.

As for U7A G9U U10C U11C C12A C13G, the “aptazyme ON/OFF ratio” value was 1.06.

As for U7A G9U U10C U11C C12A C13A, the “aptazyme ON/OFF ratio” value came out at 1.03.

Take U7A G9U U10C U11C C12A C13U: the “aptazyme ON/OFF ratio” value came out at 1.07.

On to U7A G9C U10G U11C C12A, for which the “aptazyme ON/OFF ratio” value stood at 1.08.

As for U7A G9C U10G U11C C12G, the “aptazyme ON/OFF ratio” value is 1.08.

Take U7A G9C U10G U11C C12U: the “aptazyme ON/OFF ratio” value came to 1.04.

As for U7A G9U U10C U11A C12U, the “aptazyme ON/OFF ratio” value stood at 1.23.

With U7A G9U U10C U11A C12G, the “aptazyme ON/OFF ratio” value was found to be 1.23.

For the variant U7A G9U U10C U11A C12A, the “aptazyme ON/OFF ratio” value came to 1.15.

Turning to U7A G9U U10A U11A C13U, the “aptazyme ON/OFF ratio” value is 1.16.

For the variant U7A G9U U10A U11A C13G, the “aptazyme ON/OFF ratio” value was 1.1.

For the variant U7A G9U U10A U11A C13A, the “aptazyme ON/OFF ratio” value amounted to 1.17.

As to U7A G9C U10C U11A C12G C13U, the “aptazyme ON/OFF ratio” value stood at 1.25.

For the variant U7A G9C U10C U11A C12G C13A, the “aptazyme ON/OFF ratio” value was 1.16.

On to U7A G9C U10C U11A C12G C13G, for which the “aptazyme ON/OFF ratio” value amounted to 1.16.

U7A G9U U10A U11G C12U C13G: the “aptazyme ON/OFF ratio” value is 1.13.

U7A G9U U10A U11G C12U C13A: the “aptazyme ON/OFF ratio” value turned out to be 1.16.

For U7A G9U U10A U11G C12U C13U, the “aptazyme ON/OFF ratio” value is 1.22.

For U7A G9C U10C U11G C12G, the “aptazyme ON/OFF ratio” value stood at 1.1.

With U7A G9C U10C U11G C12U, the “aptazyme ON/OFF ratio” value was 1.06.

In the case of U7A G9C U10C U11G C12A, the “aptazyme ON/OFF ratio” value came out at 1.04.

Take U7A G9C U10G U11C C12A C13G: the “aptazyme ON/OFF ratio” value was determined as 1.05.

In the case of U7A G9C U10G U11C C12A C13A, the “aptazyme ON/OFF ratio” value came out at 1.05.

As for U7A G9C U10G U11C C12A C13U, the “aptazyme ON/OFF ratio” value turned out to be 1.06.

U7A G9C U11C: the “aptazyme ON/OFF ratio” value came to 1.07.

In the case of U7A G9C U11G, the “aptazyme ON/OFF ratio” value was determined as 1.41.

For U7A G9C U11A, the “aptazyme ON/OFF ratio” value worked out at 1.11.

U7A G9U U10C C12G C13G: the “aptazyme ON/OFF ratio” value was determined as 1.29.

Take U7A G9U U10C C12G C13A: the “aptazyme ON/OFF ratio” value was 1.07.

U7A G9U U10C C12G C13U: the “aptazyme ON/OFF ratio” value came out at 1.4.

For U7A G9C U10A U11C C13G, the “aptazyme ON/OFF ratio” value was determined as 1.06.

For the variant U7A G9C U10A U11C C13U, the “aptazyme ON/OFF ratio” value stood at 1.05.

Turning to U7A G9U U10A U11A C12G, the “aptazyme ON/OFF ratio” value stood at 1.26.

U7A G9U U10A U11A C12A: the “aptazyme ON/OFF ratio” value is 1.43.

For the variant U7A G9U U10A U11A C12U, the “aptazyme ON/OFF ratio” value was 1.28.

Regarding U7A G9C U10G U11G C12G C13A, the “aptazyme ON/OFF ratio” value was found to be 1.14.

On to U7A G9C U10G U11G C12G C13U, for which the “aptazyme ON/OFF ratio” value amounted to 1.16.

Consider U7A G9C U10G U11G C12G C13G, for which the “aptazyme ON/OFF ratio” value turned out to be 1.13.

Regarding U7A G9C U11C C12U C13G, the “aptazyme ON/OFF ratio” value came to 1.12.

Take U7A G9C U11C C12U C13A: the “aptazyme ON/OFF ratio” value was 1.04.

U7A G9C U11C C12U C13U: the “aptazyme ON/OFF ratio” value came out at 1.16.

Consider U7A G9C U10G C12G C13A, for which the “aptazyme ON/OFF ratio” value turned out to be 1.07.

Take U7A G9C U10G C12G C13U: the “aptazyme ON/OFF ratio” value was found to be 1.1.

For the variant U7A G9C U10G C12G C13G, the “aptazyme ON/OFF ratio” value worked out at 1.1.

With U7A G9C U10C C13A, the “aptazyme ON/OFF ratio” value amounted to 1.01.

As for U7A G9C U10C C13G, the “aptazyme ON/OFF ratio” value was 1.05.

On to U7A G9C U10C C13U, for which the “aptazyme ON/OFF ratio” value is 1.22.

With U7A G9U U10A U11C C12A C13U, the “aptazyme ON/OFF ratio” value was found to be 1.17.

In the case of U7A G9U U10A U11C C12A C13G, the “aptazyme ON/OFF ratio” value amounted to 1.24.

For the variant U7A G9U U10A U11C C12A C13A, the “aptazyme ON/OFF ratio” value was found to be 1.22.

For U7A G9C U10G U11A C12U C13A, the “aptazyme ON/OFF ratio” value was 1.06.

As for U7A G9C U10G U11A C12U C13G, the “aptazyme ON/OFF ratio” value was 1.07.

On to U7A G9C U10G U11A C12U C13U, for which the “aptazyme ON/OFF ratio” value stood at 1.05.

Regarding U7A G9C U10G C13G, the “aptazyme ON/OFF ratio” value was 1.14.

U7A G9C U10G C13A: the “aptazyme ON/OFF ratio” value worked out at 1.15.

Consider U7A G9C U10G C13U, for which the “aptazyme ON/OFF ratio” value was determined as 1.33.

Take U7A G9C U11G C12G C13G: the “aptazyme ON/OFF ratio” value came out at 1.14.

For the variant U7A G9C U11G C12G C13U, the “aptazyme ON/OFF ratio” value is 1.12.

In the case of U7A G9C U11G C12G C13A, the “aptazyme ON/OFF ratio” value was determined as 1.16.

As for U7A G9U U10C U11A C13A, the “aptazyme ON/OFF ratio” value amounted to 1.14.

For the variant U7A G9U U10C U11A C13U, the “aptazyme ON/OFF ratio” value came out at 1.1.

Turning to U7A G9U U10C U11A C13G, the “aptazyme ON/OFF ratio” value turned out to be 1.1.

For U7A G9U U10A C12A C13G, the “aptazyme ON/OFF ratio” value is 1.07.

Regarding U7A G9U U10A C12A C13A, the “aptazyme ON/OFF ratio” value was found to be 1.1.

As for U7A G9U U10A C12A C13U, the “aptazyme ON/OFF ratio” value turned out to be 1.19.

Turning to U7A G9C U11C C12G C13U, the “aptazyme ON/OFF ratio” value turned out to be 1.09.

Turning to U7A G9C U11C C12G C13G, the “aptazyme ON/OFF ratio” value was determined as 1.09.

Take U7A G9C U11C C12G C13A: the “aptazyme ON/OFF ratio” value came out at 1.07.

As to U7A G9U C12A C13U, the “aptazyme ON/OFF ratio” value was 1.28.

With U7A G9U C12A C13G, the “aptazyme ON/OFF ratio” value worked out at 1.21.

Turning to U7A G9U C12A C13A, the “aptazyme ON/OFF ratio” value came to 1.27.
